The text below walks through data of paper PMC5457501 (Nature Communications, 2017).

Several values for one entry are separate records, joined by “and”; a condition that tells them apart may be missing. Equal values may be shown once.

B2: RPA70N (RPA70 residues 1-120) (domain or fragment, human, UniProt P27694 1-120, looked up)
chain: MVGQLSEGAIAAIMQKGDTNIKPILQVINIRPITTGNSPPRYRLLMSDGLNTLSSFMLATQLNPLVEEEQLSSNCVCQIHRFIVNTLKDGRRVVILMELEVLKSAEAVGVKIGNPVPYNE
notes: RPA70 (replication protein A 70 kDa subunit), human, N-terminal domain, residues 1-120; pET15b construct; 15N-enriched for some NMR samples; also called RPA70_(1-120); RPA70N domain of RPA70; source: E. coli BL21 (DE3), purified (HisTrap, thrombin cleavage, Superdex 75)
B3: RPA70N^E7R (domain or fragment, human, UniProt P27694 1-120, looked up)
chain: MVGQLSRGAIAAIMQKGDTNIKPILQVINIRPITTGNSPPRYRLLMSDGLNTLSSFMLATQLNPLVEEEQLSSNCVCQIHRFIVNTLKDGRRVVILMELEVLKSAEAVGVKIGNPVPYNE
notes: RPA70, human, N-terminal domain, residues 1-120, with E7R (variant optimised for crystallisation of complexes); source: E. coli BL21 (DE3), purified (HisTrap, thrombin cleavage, Superdex 75)
B4: PrimPol RPA-binding domain (PrimPol_(480-560)) (domain or fragment, human, UniProt Q96LW4 480-560, looked up)
chain: TTDEADETRSNETQNPHKPSPSRLSTGASADAVWDNGIDDAYFLEATEDAELAEAAENSLLSYNSEVDEIPDELIIEVLQE
notes: 15N-enriched for one NMR sample; also called PrimPolRBD; RBD; source: E. coli BL21(pLysS), purified (Ni Sepharose, Q Sepharose, Superdex 75)

Conditions in all cases: both partners purified
The target of assay [1] is B2. Kind of assay: ITC; MicroCal VP-ITC; 400 uM PrimPol RBD (WT or variants) injected into 20 uM RPA70N; 20 mM HEPES pH 7.5, 80 mM NaCl, 3 mM beta-mercaptoethanol; single-site model. (In general: ITC needs no label: the signal is the heat of the interaction.)
The target of assay [2] is B4. Kind of assay: SEC; analytical gel filtration, Superdex S75 10/300 GL, 50 mM Tris-HCl pH 7.5, 100 mM NaCl, 2 mM TCEP; 0.5 ml loaded at 35 uM; binding read from a shift of the peaks.
Assay [3] addresses B4. Kind of assay: SEC-MALS; Superdex 75 increase 10/300 GL, 20 mM HEPES pH 7.1, 80 mM NaCl, 0.5 mM TCEP; RBD at 185 uM with RPA70N E7R at 0, 1, 2 and 4 x molar ratios. Background: In gel filtration, larger molecules generally elute earlier.
The target in assay [4] is B2. Kind of assay: NMR titration; 15N-1H HSQC at 25 C; 100 uM 15N-enriched RPA70N or 15N-enriched PrimPol 480-560 alone and with 200 uM unlabelled partner; 20 mM HEPES pH 7.5, 80 mM NaCl, 2 mM DTT.
The assay “RPA70N^E7R” has as its target B3. Kind of assay: crystal structure; co-crystals by sitting-drop vapour diffusion at 293 K; RPA70N E7R with PrimPol 514-528 peptide (2.5:1 peptide:protein) or with PrimPol 480-560 (1:1).

B1: PrimPol RBD RBM-B knockout (480-546 truncation) (domain or fragment, human, UniProt Q96LW4 480-546, looked up)
chain: TTDEADETRSNETQNPHKPSPSRLSTGASADAVWDNGIDDAYFLEATEDAELAEAAENSLLSYNSEV
notes: PrimPol, human, residues 480-546 (RBD without RBM-B); also called PrimPol_(B-KO); RBD_(B-KO); source: E. coli BL21(pLysS), purified (Ni Sepharose, Q Sepharose, gel filtration)
The term Kd denotes the constant that tells how readily two partners part at equilibrium. A low value points to higher affinity. Regarding B1, in assay [1], the Kd came to 6.7 ± 1.5 µM. The stoichiometry N is a count of units in the complex or per binding partner. Regarding B2, the “stoichiometry N” value in assay [2] was determined as 2 RPA70N per PrimPolRBD.

On to B3, for which the “stoichiometry N” value in assay [3] is 1 RPA70N per PrimPolRBD and 2 RPA70N per PrimPolRBD.

B4: the binding result (in assay [4]; in the assay with RPA70N^E7R) was “binds” in each case.

B5: PrimPol_(514-528) peptide (peptide, UniProt Q96LW4 514-528, looked up)
peptide: DNGIDDAYFLEATED
notes: PrimPol, human, residues 514-528 (RBM-A), 15-mer; also called RBM-A peptide residues (PrimPol_(514-528)); 15-mer PrimPol_(514-528) peptide; source: synthetic peptide (Genscript), used as supplied
For the molecule B5, the binding result in the assay with RPA70N^E7R is recorded as “binds”.

B6: RBM-A peptide (RBM-A_(510-528)) (peptide, UniProt Q96LW4 510-528, looked up)
peptide: DAVWDNGIDDAYFLEATED
notes: source: synthetic peptide (GenScript), HPLC purified
Turning to B6, the binding result in assay [4] is “binds”.

B7: PrimPol RBD RBM-A knockout (D514R/D518R/D519R) (domain or fragment, human, UniProt Q96LW4 480-560, looked up)
chain: TTDEADETRSNETQNPHKPSPSRLSTGASADAVWRNGIRRAYFLEATEDAELAEAAENSLLSYNSEVDEIPDELIIEVLQE
notes: PrimPol, human, RBD residues 480-560 with D514R, D518R, D519R; also called PrimPol_(A-KO); RBD_(A-KO); source: E. coli BL21(pLysS), purified (Ni Sepharose, Q Sepharose, gel filtration)
Turning to B7, in assay [1], binding was put at a Kd of 7.8 ± 0.6 µM.
